The record followed here is patent US20220340682A1 (Sanofi, published 2022).

Positions count from the first letter of the chain named.

Assay [1] deals with T1, hCEACAM5, human CEACAM5 ECD (35-685) (human, UniProt P06731 35-685).
T1 construct: produced in HEK293; also called human CEACAM5 protein; human CEACAM5 extracellular domain
T1 sequence: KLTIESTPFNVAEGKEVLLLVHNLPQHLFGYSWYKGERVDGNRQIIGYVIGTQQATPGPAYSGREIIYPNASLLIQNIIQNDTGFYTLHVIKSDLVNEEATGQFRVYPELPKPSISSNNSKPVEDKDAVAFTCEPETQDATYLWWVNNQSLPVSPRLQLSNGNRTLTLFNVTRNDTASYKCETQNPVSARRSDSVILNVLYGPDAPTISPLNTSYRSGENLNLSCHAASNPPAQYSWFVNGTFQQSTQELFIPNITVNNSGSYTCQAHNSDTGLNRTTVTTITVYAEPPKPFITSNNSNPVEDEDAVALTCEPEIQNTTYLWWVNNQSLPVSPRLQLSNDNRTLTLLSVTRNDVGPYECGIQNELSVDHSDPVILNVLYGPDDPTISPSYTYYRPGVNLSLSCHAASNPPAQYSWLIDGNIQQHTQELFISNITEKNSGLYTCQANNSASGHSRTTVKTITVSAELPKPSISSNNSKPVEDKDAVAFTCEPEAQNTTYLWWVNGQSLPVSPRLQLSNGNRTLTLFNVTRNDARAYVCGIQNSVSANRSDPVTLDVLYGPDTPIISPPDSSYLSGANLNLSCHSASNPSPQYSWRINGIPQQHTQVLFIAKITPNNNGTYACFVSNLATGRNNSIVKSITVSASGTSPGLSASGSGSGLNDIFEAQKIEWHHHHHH
The assay is described as follows: ELISA, coated CEACAM5. The method, then:
(§1) All CEACAM5-specific mAbs were assessed for their ability to bind human and primate CEACAM5 protein by ELISA. Plates were coated with human or primate CEACAM5 protein, anti-hCEACAM5 mAbs were added to the plate and detected with rabbit anti-mouse IgG conjugated with horseradish peroxidase (Sigma; # A9044). The antibody binding was visualized by adding TMB-H2O2 buffer and read at a wavelength of 450 nm.
(In general: In an ELISA, binding on a coated surface is turned into a signal by an enzyme label.)

The target in assay [2] is T2, cCEACAM5, M. fascicularis CEACAM5 ECD (35-688) (Macaca fascicularis).
T2 construct: ECD followed by a 24 amino acid extension containing a His-Tag; also called cynomolgus CEACAM5; monkey CEACAM5
T2 chain: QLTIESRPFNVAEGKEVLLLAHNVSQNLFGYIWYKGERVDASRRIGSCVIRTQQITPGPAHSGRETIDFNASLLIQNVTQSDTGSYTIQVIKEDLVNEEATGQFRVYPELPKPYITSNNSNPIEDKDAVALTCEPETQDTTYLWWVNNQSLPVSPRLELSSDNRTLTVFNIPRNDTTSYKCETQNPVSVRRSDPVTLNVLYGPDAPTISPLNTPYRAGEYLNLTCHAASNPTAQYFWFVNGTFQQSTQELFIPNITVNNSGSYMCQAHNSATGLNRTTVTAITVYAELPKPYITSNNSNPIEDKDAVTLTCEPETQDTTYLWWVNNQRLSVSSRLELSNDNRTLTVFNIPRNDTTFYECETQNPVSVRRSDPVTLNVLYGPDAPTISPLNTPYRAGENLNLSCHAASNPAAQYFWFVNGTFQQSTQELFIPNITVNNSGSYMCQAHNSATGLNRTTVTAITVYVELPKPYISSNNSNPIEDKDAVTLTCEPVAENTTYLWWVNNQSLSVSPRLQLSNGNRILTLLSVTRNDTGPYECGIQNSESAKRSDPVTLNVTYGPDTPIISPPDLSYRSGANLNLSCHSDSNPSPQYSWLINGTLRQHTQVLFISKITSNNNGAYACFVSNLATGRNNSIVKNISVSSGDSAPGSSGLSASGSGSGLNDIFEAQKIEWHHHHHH
Put plainly: ELISA, coated CEACAM5. The method, then: as §1

Assay [3] deals with T1, hCEACAM5, human CEACAM5 ECD (35-685). The assay is described as follows: SPR (BIAcore 2000), mAb captured by anti-human Fc, antigen injected 1-500 nM. How it is done:
(§2) The binding kinetics of humanized anti-CEACAM5_MAb2 variants, compared with chimeric MAb2, to recombinant human CEACAM5 (hCEACAM5) and cynomolgus monkey CEACAM5 (cCEACAM5) were determined by surface plasmon resonance assay using a BlAcore 2000 (BlAcore Inc., Uppsala, N.J.).
(§3) Briefly, a CM5 BlAcore biosensor chip was docked into the instrument and activated with 70 μL of 1:1 NHS/EDC at room temperature. A mouse anti-ahuman Fc IgG1 (BlAcore # BR-1008-39) (50 μg/mL in […] acetate buffer, pH5) were immobilized on the activated chips in all flow cells. The immobilization was carried out at a flow rate of 10 μL/min up to saturation. The chip was then blocked by injection of 70 μL of ethanolamine-HCl, pH8.5, followed by one wash with 3M MgCl2. To measure the binding of anti-CEACAM5 mAbs to the human CEACAM5 protein or cynomolgus CEACAM5 protein, antibodies were used at 1-5 μg/mL in BlAcore running buffer (HBS-EP). Antigens (human CEACAM5 or cynomolgus CEACAM5) were injected from 1 to 500 nM. Following completion of the injection phase, dissociation was monitored in a BlAcore running buffer at the same flow rate for 600 sec. The surface was regenerated between injections using 2×5 μL MgCl2 3M (2×30s). Individual sensorgrams were analyzed using BlAevaluation software.
On the technique in general: SPR reads the build-up and loss of mass on a sensor chip optically.

Assay [4] concerns the target T2, cCEACAM5, M. fascicularis CEACAM5 ECD …. Described as above. How it is done: as §2, §3

B1: antibody MAb1 (antibody, IgG1, V domains shown)
VH: EVMLVESGGGLVKPGGSLKLSCAASGFTFSSYAMSWVRQTPEKRLEWVATISSGGSYIYYLDSVKGRFTISRDNAKNTLYLQMSSLRSEDTAMYYCARPAYYGNPAMDYWGQGTSVTVSS
VL: DILMTQSQKFMSTSVGDRVSVTCKASQNVGTNVAWYQQKPGQSPKPLIYSASYRYSGVPDRFTGSGSGTDFTLTISNVQSEDLAEYFCQQYNSYPLYTFGGGTKLEIK
As a reminder, the EC50 is the concentration at which the effect is half-maximal. A low value points to higher potency in that assay. In assay [1], B1 gave an EC50 of 0.53 nM. Besides, in assay [2], the EC50 was found to be 1.18 nM and the “Ratio c/h (EC50 on cCEACAM5 against EC50 on hCEACAM5)” value (from here on “Ratio c/h”) was 2.2.

B2: antibody MAb3 (antibody, IgG1, V domains shown)
VH: EVKLVESGGGLVKPGGSLTLPCAASGFTFSRYAMSWVRQTPEKRLEWVASISSGGDTYYPDSVKGRFTVSRDNARNILFLQMSSLRSEDTGMYYCARVNYYDSSFLDWWGQGTTLTVSS
VL: B1 VL with L3V, K9R, S14L, V15E, P46A, S93N
notes: Murine monoclonal from hybridoma, IgG1, kappa
Turning to B2, the EC50 was found to be 0.36 nM in assay [1] and 3.72 nM in assay [2]. Besides, the “Ratio c/h” value in assay [2] stood at 10.

B3: huMAb2-3 (antibody, human IgG1, kappa, V domains shown)
VH: EVQLQESGPGLVKPGGSLSLSCAASGFVFSSYDMSWVRQTPERGLEWVAYISSGGGITYAPSTVKGRFTVSRDNAKNTLYLQMNSLTSEDTAVYYCAAHYFGSSGPFAYWGQGTLVTVSS
VL: DIQMTQSPASLSASVGDRVTITCRASENIFSYLAWYQQKPGKSPKLLVYNTRTLAEGVPSRFSGSGSGTDFSLTISSLQPEDFATYYCQHHYGTPFTFGSGTKLEIKR
notes: Humanized MAb2, human IgG1 / Ckappa; also called MAb2_VL1cVH1a-IgG1
One may read the Kd as the concentration at which binding is half-saturated. Read a low Kd as higher affinity. Take B3: the figures for the equilibrium dissociation constant (Kd) in assay [3] and in assay [4] were 11.7 nM and 73.5 nM, respectively.

B4: huMAb2-1 (antibody, V domains shown)
VH: B3 VH with G44R, A60F, V93I, S120A
VL: DIQMTQSPASLSASVGDTVTITCRASENIFSYLAWYQQKPGKSPKLLVYNTKTLAEGVPSRFSGSGSGTQFSLTISSLQPEDFGSYYCQHHYGTPFTFGSGTKLEIK
notes: Humanized MAb2 (VL1 + VH1) fused to human IgG1 and human Ckappa constant domains; also called MAb2_VL1VH1-IgG1; MAb2VL1VH1-IgG1
As to B4, the equilibrium dissociation constant (Kd) was 9.8 nM in assay [3] and 41.7 nM in assay [4].

B5: chMAb2 (antibody, human IgG1, kappa, V domains shown)
VH: EVQLQESGGVLVKPGGSLKLSCAASGFVFSSYDMSWVRQTPEKRLEWVAYISSGGGITYFPDTVQGRFTVSRDNAKNTLYLQMNSLKSEDTAIYYCAAHYFGSSGPFAYWGQGTLVTVSA
VL: B3 VL with D17E, R18T, P40Q, K45Q, R52K, D70Q, T74K, S76N, A84G, T85S
notes: Chimeric, human IgG1, Ck isotype; also called MAb2-IgG1; chimeric MAb2
For B5, the figures for the Kd in assay [3] and in assay [4] were 9.9 nM and 52.3 nM, respectively.

B6: huMAb2-2 (antibody, V domains shown)
VH: B3 VH
VL: B4 VL with T18R, Q70D, G84A, S85T
notes: Humanized MAb2 (VL1a + VH1a) fused to human IgG1 and human Ckappa constant domains; also called MAb2_VL1aVH1a-IgG1; MA2_VL1aVH1a-IgG1
For the molecule B6, the figures for the Kd in assay [3] and in assay [4] were 24.5 nM and 96 nM, respectively.

B7: huMAb2-4 (antibody, human IgG1, kappa, V domains shown)
VH: B3 VH with G44R, A60F, V93I, S120A
VL: B3 VL with R18T, D70Q, A84G, T85S
notes: Humanized MAb2, human IgG1 / Ckappa; also called MAb2_VL1d VH1-IgG1; MAb2_VL1dVH1-IgG1
As to B7, the Kd in assay [3] came out at 6.9 nM; in assay [4] it was 38.6 nM.

B8: antibody MAb4 (antibody, IgG1, V domains shown)
VH: EVQLVESGGGLVKPGGSLKLSCAASGFTFSSYDMSWVRQTPEKRLEWVAFISSYGGRTYYADTVKGRFTISRDNAKNTLYLQMSSLKSEDTAMFYCAAHYFGTSGPFAYWGQGTLVTVSA
VL: DIQMTQSPASLSASVGETVTITCRASENIYSYFAWYQQKQGKSPQLLVYNAKILAEGVPSRFSGSGSGTQFSLKINSLQPEDFGTYYCQHHYGIPFTFGSGTKLELK
notes: as for B2
As for B8, the EC50 amounted to 0.08 nM in assay [1] and 0.05 nM in assay [2]. Moreover, the “Ratio c/h” value in assay [2] amounted to 0.6.

B9: antibody MAb5 (antibody, IgG1, V domains shown)
VH: ELQLVESGGVLVKPGGSLKLSCAASGFAFSSYDMSWVRQTPEKRLEWVTYINSGGGITYYPDTVKGRFTISRDNARNTLYLQMSSLKSEDTAIYYCTAHYFGSSGPFAYWGQGTLVTVSA
VL: B8 VL with F33L, I53T, A55T, T85S, I94T, L106I
notes: as for B2
In assay [1], B9 had an EC50 of 0.4 nM. In assay [2], the concentration for a half-maximal effect (EC50) amounted to 0.45 nM and the “Ratio c/h” value is 1.1.
